Paper PMC8222801

Target: CmMYB6_N3 (Chrysanthemum morifolium)
Sequence (main, as listed by the source): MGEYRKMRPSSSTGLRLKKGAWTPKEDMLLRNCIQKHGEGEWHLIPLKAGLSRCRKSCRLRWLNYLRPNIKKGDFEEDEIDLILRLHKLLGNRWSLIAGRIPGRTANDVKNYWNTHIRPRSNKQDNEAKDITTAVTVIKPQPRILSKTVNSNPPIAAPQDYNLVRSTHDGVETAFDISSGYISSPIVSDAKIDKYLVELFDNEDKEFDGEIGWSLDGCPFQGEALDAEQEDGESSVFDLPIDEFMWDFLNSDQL

“CmbHLH2^Full_L (from UniProt A0A0S3J3I7 1-613) (natural protein)” gave a GUS activity driven by the CmCHS promoter in tobacco leaves co-infiltrated with CmbHLH2^Full and full-length CmMYB6 (untagged effectors) of 5 fold and a GUS activity driven by the CmDFR promoter in tobacco leaves co-infiltrated with CmbHLH2^Full and full-length CmMYB6 (untagged effectors) of 26 fold.
